According to publication PMC2670979:

What was measured:
[1] = biological target: GST-Miro1 ΔEF (UniProt Q8IXI2); assay: pull-down; as a5 but at 5 uM [Ca2+]free; band normalised to the level in 0 Ca2+
[2] = biological target: GST-Miro1 WT (UniProt Q8IXI2); assay: as above
Chain of GST-Miro1 WT (Q8IXI2 whole entry): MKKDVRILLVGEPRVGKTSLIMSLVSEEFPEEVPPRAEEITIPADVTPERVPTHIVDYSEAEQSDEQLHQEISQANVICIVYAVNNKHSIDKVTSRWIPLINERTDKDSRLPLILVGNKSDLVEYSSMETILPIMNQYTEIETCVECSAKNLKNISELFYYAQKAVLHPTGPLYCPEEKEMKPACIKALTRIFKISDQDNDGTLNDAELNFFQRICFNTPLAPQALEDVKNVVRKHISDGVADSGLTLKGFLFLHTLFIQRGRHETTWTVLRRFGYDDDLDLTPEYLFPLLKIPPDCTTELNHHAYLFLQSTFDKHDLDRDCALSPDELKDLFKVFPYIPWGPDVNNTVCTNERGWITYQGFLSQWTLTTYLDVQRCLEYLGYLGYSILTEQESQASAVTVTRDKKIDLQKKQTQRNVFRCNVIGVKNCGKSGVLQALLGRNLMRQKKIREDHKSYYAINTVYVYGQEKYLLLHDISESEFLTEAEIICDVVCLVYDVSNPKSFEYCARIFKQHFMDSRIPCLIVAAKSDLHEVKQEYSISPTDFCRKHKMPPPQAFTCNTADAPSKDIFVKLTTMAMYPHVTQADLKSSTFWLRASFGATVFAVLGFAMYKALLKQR

Chain of KIF5 motors (endogenous, detected using a pan-KIF5 antibody) (Q2PQA9 whole entry): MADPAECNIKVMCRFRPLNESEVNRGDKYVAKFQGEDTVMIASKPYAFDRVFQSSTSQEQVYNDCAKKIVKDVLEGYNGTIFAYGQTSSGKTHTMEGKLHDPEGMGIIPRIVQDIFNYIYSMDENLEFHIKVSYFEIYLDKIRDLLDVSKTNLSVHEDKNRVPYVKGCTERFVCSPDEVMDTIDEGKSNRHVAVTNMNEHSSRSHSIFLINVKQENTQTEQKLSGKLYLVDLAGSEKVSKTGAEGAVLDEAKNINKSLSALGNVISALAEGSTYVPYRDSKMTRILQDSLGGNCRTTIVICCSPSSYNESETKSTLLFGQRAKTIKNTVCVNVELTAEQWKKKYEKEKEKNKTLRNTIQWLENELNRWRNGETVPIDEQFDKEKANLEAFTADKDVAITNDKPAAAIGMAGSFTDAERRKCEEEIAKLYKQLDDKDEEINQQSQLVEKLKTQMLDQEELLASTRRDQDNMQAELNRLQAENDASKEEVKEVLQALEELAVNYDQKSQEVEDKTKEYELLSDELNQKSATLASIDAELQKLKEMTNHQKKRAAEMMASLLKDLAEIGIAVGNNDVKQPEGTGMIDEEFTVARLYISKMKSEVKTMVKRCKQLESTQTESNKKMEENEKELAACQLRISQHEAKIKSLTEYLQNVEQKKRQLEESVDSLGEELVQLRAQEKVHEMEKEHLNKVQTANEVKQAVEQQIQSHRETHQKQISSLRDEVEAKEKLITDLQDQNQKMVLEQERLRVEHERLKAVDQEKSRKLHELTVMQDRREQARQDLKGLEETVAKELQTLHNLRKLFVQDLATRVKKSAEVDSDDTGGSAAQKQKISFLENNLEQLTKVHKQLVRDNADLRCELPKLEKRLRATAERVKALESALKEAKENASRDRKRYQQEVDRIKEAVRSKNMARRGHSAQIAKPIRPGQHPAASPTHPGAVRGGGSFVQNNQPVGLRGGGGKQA
Chain of GST-Miro1 ΔEF (Q8IXI2 whole entry E208K/E328K): as the sequence (Q8IXI2 whole entry) above, with E208K, E328K counted along it

Which results are given for “KIF5 motors (endogenous, detected using a pan-KIF5 antibody) (from UniProt Q2PQA9 1-963) (natural protein)”?
percent of the level in 0 [Ca2+], at 5 uM [Ca2+] [1]: 87%; percent of the level in 0 [Ca2+], at 5 uM [Ca2+]free [2]: 15%
